Measured values as given in patent US6544548B1, “Keratin-based powders and hydrogel for pharmaceutical applications” (Keraplast Technologies, Ltd., priority 1999, dated 2003).

Tests used:
Format in all cases: physicochemical
[1] = Loading of acetaminophen into keratin tablets (tablet disintegrated in water, HPLC); conditions: acetaminophen bound to H2O2-oxidized keratin, 500 mg tablets
Procedure: Evaluation of the loading of acetaminophen was accomplished by disintegrating a single tablet into a known volume of water over a one week period at room temperature. In addition, that samples were sonicated for 90 minutes prior to sampling. A sample of the solution was withdrawn and analyzed by HPLC.

[2] = Dissolution test (USP rotating paddle) of drug-loaded oxidized keratin tablets in simulated gastric fluid; conditions: 500 mg tablets of drug bound to H2O2-oxidized keratin, 37 C
Procedure: Dissolution tests are performed according to the standard United States Pharmacopoeia (USP) rotating paddle method. In this method, the volume of the dissolution medium is fixed and agitation is provided under defined conditions by the stainless steel paddle. A 1L volume of purified water or simulated gastric fluid (Lot. No. 76H9312, Sigma-Aldrich, St. Louis, Mo.) was used at 37° C.±0.5° C. The temperature of the dissolution medium was maintained at 37° C. by immersing the dissolution flask in a water bath. A cover was used on the system to avoid water loss through evaporation. […]
During the test, small volumes of sample were withdrawn at various time points, for example, every 20 minutes within the first hour (including a 0 time point) and every hour after that for 8 hours. […] High-performance liquid chromatography (HPLC) was performed on the samples and the amount released from the dosage form calculated based on a calibration curve generated from solutions with known concentrations of the compound of interest.
Tablet samples that incorporated the vasoconstrictor norephedrine were prepared by binding the drug to oxidized keratin in an ion exchange step. […] This was accomplished by dissolving a measured amount of norephedrine into ethanol, adding 5 g of oxidized keratin and heating to reflux for 2 hours, followed by stirring at room temperature for 24 hours. […]

[3] = Dissolution test (USP rotating paddle) of albumin from keratin tablets and capsules
Procedure: Dissolution tests are performed according to the standard United States Pharmacopoeia (USP) rotating paddle method. In this method, the volume of the dissolution medium is fixed and agitation is provided under defined conditions by the stainless steel paddle. A 1L volume of purified water or simulated gastric fluid (Lot. No. 76H9312, Sigma-Aldrich, St. Louis, Mo.) was used at 37° C.±0.5° C. The temperature of the dissolution medium was maintained at 37° C. by immersing the dissolution flask in a water bath. A cover was used on the system to avoid water loss through evaporation. After the temperature equilibrated, the samples were allowed to sink to the bottom of the vessel before rotation of the paddle. Rotation speed was kept constant at 50 rpm.
During the test, small volumes of sample were withdrawn at various time points, for example, every 20 minutes within the first hour (including a 0 time point) and every hour after that for 8 hours. Samples were taken from a precise point in the dissolution flask, halfway between the surface of the dissolution medium and the top of the rotating paddle, and not less than 10 mm from the wall of the vessel. The volume withdrawn during sampling was replaced with an equal volume of media, pre-warmed to 37° C. High-performance liquid chromatography (HPLC) was performed on the samples and the amount released from the dosage form calculated based on a calibration curve generated from solutions with known concentrations of the compound of interest.
Samples containing albumin were made in tablet and capsule forms. Tablets were prepared by co-grinding a mixture of 80/20 dry keratin absorbent powder/bovine albumin. The keratin absorbent powder was prepared as described in Section VI. B supra, and the albumin was purchased from Sigma Chemical Co., St. Louis, Mo. (Lot No. 69H1257, Fraction V, 96% purity). The solid mixture was further homogenized by shaking in a closed container. Samples of 500 mg of the powder mixture were made into tablets using a pellet press at 30,000 psi (400 mg keratin, 100 mg albumin). The dissolution profile of these tablets was measured by the rotating paddle method.
Albumin capsules were prepared by dissolving 2 g of albumin in 200 g of deionized water. The albumin solution was added to 8 g of absorbent keratin powder to form a hydrogel. The hydrogel was thoroughly mixed and poured into petri dishes. The water was removed under vacuum at room temperature. After drying for approximately 36 hours, the resulting solid was ground using a mortar and pestle. 400 mg of the ground keratin/albumin powder (320 mg keratin/80 mg albumin) was placed into each of several two-part gelatin capsules (No. 0, Eli Lilly and Co., Indianapolis, Ind.). The dissolution profile of these tablets was measured using the rotating paddle method.

Row | Molecule | loading level in keratin tablets [1] | time over which bound drug is released [2] | release of albumin, water versus gastric fluid, compared with tablets ([3]; gelatin capsules (320 mg keratin/80 mg albumin, intimately mixed via hydrogel)) | amount of albumin released over an equivalent time period, capsules versus tablets ([3]; gelatin capsules, intimately mixed via hydrogel) | disintegration and release of albumin ([3]; keratin tablets (400 mg keratin, 100 mg albumin, mechanically mixed), purified water, 37 C) | equilibrium amount of albumin released, gastric fluid versus water ([3]; keratin tablets, simulated gastric fluid) | release of albumin ([3]; keratin tablets, simulated gastric fluid, 37 C)
1 | CC(=O)Nc1ccc(O)cc1 [acetaminophen, 4-Acetaminophenol] | low | 5 h | – | – | – | – | –
2 | albumin: bovine albumin (Sigma, Fraction V, 96% purity) formulated with keratin absorbent powder as tablets or gelatin capsules | – | – | identical trend | much less material was released | almost immediate and complete | significantly lower | immediate
3 | CC(N)C(O)c1ccccc1 (centres unmarked) [norephedrine, Phenylpropanolamine] | – | 2 h | – | – | – | – | –
